# According to patent publication US20120253009A1 (Amgen, published 2012):
# T1: human mpl receptor (human, UniProt P40238 26-635)
# T1 sequence (looked up): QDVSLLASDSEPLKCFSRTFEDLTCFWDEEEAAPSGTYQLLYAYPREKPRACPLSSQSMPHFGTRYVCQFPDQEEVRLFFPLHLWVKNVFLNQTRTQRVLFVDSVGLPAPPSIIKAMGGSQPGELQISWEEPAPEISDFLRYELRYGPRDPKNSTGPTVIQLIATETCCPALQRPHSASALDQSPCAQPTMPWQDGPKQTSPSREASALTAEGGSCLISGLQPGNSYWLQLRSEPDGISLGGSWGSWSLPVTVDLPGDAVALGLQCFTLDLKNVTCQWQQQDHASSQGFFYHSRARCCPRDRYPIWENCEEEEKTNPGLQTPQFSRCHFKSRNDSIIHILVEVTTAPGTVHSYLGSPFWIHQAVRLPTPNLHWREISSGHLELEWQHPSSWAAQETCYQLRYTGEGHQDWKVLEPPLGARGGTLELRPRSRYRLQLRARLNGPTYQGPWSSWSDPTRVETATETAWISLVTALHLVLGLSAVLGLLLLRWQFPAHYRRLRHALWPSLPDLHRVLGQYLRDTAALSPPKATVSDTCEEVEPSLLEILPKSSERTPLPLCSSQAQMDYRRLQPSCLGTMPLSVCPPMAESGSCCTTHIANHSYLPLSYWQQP
# Target: T1, human mpl receptor
# Experiment: cell-based or functional assay
row,EC50 on 32Dcl23/Mpl,Binder
1,15 pM,Fc-Loop (Sym) (SEQ ID NO: 35) (Fc fusion) MDKTHTCPPCPAPELLGGPSVFLFPPKPKDTLMISRTPEVTCVVVDVSHEDPEVKFNWYVDGVEVHNAKTKPREEQYNSTYRVVSVLTVLHQDWLNGKEYKCKVSNKALPAPIEKTISKAKGQPREPQVYTLPPSRDELGGQGCSSGGPTLREWQQCRRMQHSGGTKNQVSLTCLVKGFYPSDIAVEWESNGQPENNYKTTPPVLDSDGSFFLYSKLTVDKSRWQQGNVFSCSVMHEALHNHYTQKSLSLSPGK
2,12 pM,Fc-Loop (Sym) (SEQ ID NO: 6) (Fc fusion) MDKTHTCPPCPAPELLGGPSVFLFPPKPKDTLMISRTPEVTCVVVDVSHEDPEVKFNWYVDGVEVHNAKTKPREEQYNSTYRVVSVLTVLHQDWLNGKEYKCKVSNKALPAPIEKTISKAKGQPREPQVYTLPPSRDELGGQGCSSGGPTLREWQQCRRAQHSGGTKNQVSLTCLVKGFYPSDIAVEWESNGQPENNYKTTPPVLDSDGSFFLYSKLTVDKSRWQQGNVFSCSVMHEALHNHYTQKSLSLSPGK

# The remaining lines, values behind:
row,Binder,EC50 on 32Dcl23/Mpl
1,Fc-Loop (Asym) (SEQ ID NO: 35) (Fc fusion) MDKTHTCPPCPAPELLGGPSVFLFPPKPKDTLMISRTPEVTCVVVDVSHEDPEVKFNWYVDGVEVHNAKTKPREEQYNSTYRVVSVLTVLHQDWLNGKEYKCKVSNKALPAPIEKTISKAKGQPREPQVYTLPPSRDELGGGGQGCSSGGPTLREWQQCRRMQHSGGTKNQVSLTCLVKGFYPSDIAVEWESNGQPENNYKTTPPVLDSDGSFFLYSKLTVDKSRWQQGNVFSCSVMHEALHNHYTQKSLSLSPGK,13 pM
2,Fc-Loop (Asym) (SEQ ID NO: 5) (Fc fusion) MDKTHTCPPCPAPELLGGPSVFLFPPKPKDTLMISRTPEVTCVVVDVSHEDPEVKFNWYVDGVEVHNAKTKPREEQYNSTYRVVSVLTVLHQDWLNGKEYKCKVSNKALPAPIEKTISKAKGQPREPQVYTLPPSRDELGGGGQGCSSGGPTLREWQQCVRMQHSGGTKNQVSLTCLVKGFYPSDIAVEWESNGQPENNYKTTPPVLDSDGSFFLYSKLTVDKSRWQQGNVFSCSVMHEALHNHYTQKSLSLSPGK,6 pM
3,Fc-Loop (Sym) (SEQ ID NO: 5) (Fc fusion) MDKTHTCPPCPAPELLGGPSVFLFPPKPKDTLMISRTPEVTCVVVDVSHEDPEVKFNWYVDGVEVHNAKTKPREEQYNSTYRVVSVLTVLHQDWLNGKEYKCKVSNKALPAPIEKTISKAKGQPREPQVYTLPPSRDELGGQGCSSGGPTLREWQQCVRMQHSGGTKNQVSLTCLVKGFYPSDIAVEWESNGQPENNYKTTPPVLDSDGSFFLYSKLTVDKSRWQQGNVFSCSVMHEALHNHYTQKSLSLSPGK,10 pM
